# How the values were obtained:
# [1] = molecular target: T1, TRCW5 antigen (CD3δε-Fc-Avi) (biotinylated (site not stated)); experiment: ELISA after heat
# T1 construct: also called recombinant CD3
# [2] = molecular target: T1, TRCW5 antigen (CD3δε-Fc-Avi); experiment: ELISA
# [3] = molecular target: T1, TRCW5 antigen (CD3δε-Fc-Avi); experiment: binding after heat
# T1 sequence (chain, as listed by the source mutant limits assumed): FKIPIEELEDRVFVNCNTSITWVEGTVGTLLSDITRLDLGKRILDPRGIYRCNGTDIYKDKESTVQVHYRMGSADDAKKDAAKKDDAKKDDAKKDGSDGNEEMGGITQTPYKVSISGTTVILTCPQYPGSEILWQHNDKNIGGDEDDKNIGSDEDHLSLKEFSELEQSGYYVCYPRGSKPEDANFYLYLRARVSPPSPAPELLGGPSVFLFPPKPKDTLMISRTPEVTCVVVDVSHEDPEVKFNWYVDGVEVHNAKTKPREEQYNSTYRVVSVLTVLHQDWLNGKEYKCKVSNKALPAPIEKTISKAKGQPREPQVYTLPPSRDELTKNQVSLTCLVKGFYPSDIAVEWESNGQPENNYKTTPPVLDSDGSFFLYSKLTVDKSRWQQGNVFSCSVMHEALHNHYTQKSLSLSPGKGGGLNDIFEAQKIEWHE
Binder,% Retained 55° C. [1] [%],% Retained 60° C. [1] [%],% Retained 65° C. [1] [%],EC50 [2] [nM],% Retained 55° C. [3] [%],% Retained 60° C. [3] [%],% Retained 65° C. [3] [%]
"CD3B2030 N106Q (scFv, also called CD3B2030 NtoQ) scFv: QVQLVQSGAEVKKPGSSVKVSCKASGYTFTRSTMHWVKQAPGQGLEWIGYINPSSAYTNYNQKFQGRVTLTADKSTSTAYMELSSLRSEDTAVYYCASPQVHYDYQGFPYWGQGTLVTVSSGGSEGKSSGSGSESKSTGGSEIVLTQSPATLSASPGERVTLSCSASSSVSYMNWYQQKPGQAPRRWIYDSSKLASGVPARFSGSGSGRDYTLTISSLEPEDFAVYYCQQWSRNPPTFGGGTKVEIK",111,105,55,10,110,97.5,72.3
CD3B2051 (scFv) scFv: QVQLVQSGAEVKKPGSSVKVSCKASGYTFTRSTMHWVKQAPGQGLEWMGYINPSSAYTNYNQKFQGRVTLTADKSTSTAYMELSSLRSEDTAVYYCASPQVHYDYNGFPYWGQGTLVTVSSGGSEGKSSGSGSESKSTGGSEIVLTQSPATLSASPGERVTLSCSASSSVSYMNWYQQKPGQAPRRLIYDSSKLASGVPARFSGSGSGRDYTLTISSLEPEDFAVYYCQQWSRNPPTFGGGTKVEIK,109,94,32,8.73,104,95,10.9
CD3B2089 N106F (scFv) scFv: QVQLVQSGAEVKKPGSSVKVSCKASGYTFTRSTMHWVRQAPGQGLEWMGYINPSSAYTNYAQKFQGRVTLTADKSTSTAYMELSSLRSEDTAVYYCASPQVHYDYFGFPYWGQGTLVTVSSGGSEGKSSGSGSESKSTGGSEIVLTQSPATLSASPGERVTLSCSASSSVSYMNWYQQKPGQAPRRWIYDSSKLASGVPARFSGSGSGRDYTLTISSLEPEDFAVYYCQQWSRNPPTFGGGTKVEIK,–,–,–,10.1,113,101,36.2
CD3B2051 N106P (scFv) scFv: QVQLVQSGAEVKKPGSSVKVSCKASGYTFTRSTMHWVKQAPGQGLEWMGYINPSSAYTNYNQKFQGRVTLTADKSTSTAYMELSSLRSEDTAVYYCASPQVHYDYPGFPYWGQGTLVTVSSGGSEGKSSGSGSESKSTGGSEIVLTQSPATLSASPGERVTLSCSASSSVSYMNWYQQKPGQAPRRLIYDSSKLASGVPARFSGSGSGRDYTLTISSLEPEDFAVYYCQQWSRNPPTFGGGTKVEIK,–,–,–,10.9,87.7,32.6,0.2
CD3B2051 N106R (scFv) scFv: QVQLVQSGAEVKKPGSSVKVSCKASGYTFTRSTMHWVKQAPGQGLEWMGYINPSSAYTNYNQKFQGRVTLTADKSTSTAYMELSSLRSEDTAVYYCASPQVHYDYRGFPYWGQGTLVTVSSGGSEGKSSGSGSESKSTGGSEIVLTQSPATLSASPGERVTLSCSASSSVSYMNWYQQKPGQAPRRLIYDSSKLASGVPARFSGSGSGRDYTLTISSLEPEDFAVYYCQQWSRNPPTFGGGTKVEIK,–,–,–,11.2,101,74.5,8.4
CD3B2089 N106I (scFv) scFv: QVQLVQSGAEVKKPGSSVKVSCKASGYTFTRSTMHWVRQAPGQGLEWMGYINPSSAYTNYAQKFQGRVTLTADKSTSTAYMELSSLRSEDTAVYYCASPQVHYDYIGFPYWGQGTLVTVSSGGSEGKSSGSGSESKSTGGSEIVLTQSPATLSASPGERVTLSCSASSSVSYMNWYQQKPGQAPRRWIYDSSKLASGVPARFSGSGSGRDYTLTISSLEPEDFAVYYCQQWSRNPPTFGGGTKVEIK,–,–,–,17.9,40.6,2.5,0.9
CD3B2051 N106V (scFv) scFv: QVQLVQSGAEVKKPGSSVKVSCKASGYTFTRSTMHWVKQAPGQGLEWMGYINPSSAYTNYNQKFQGRVTLTADKSTSTAYMELSSLRSEDTAVYYCASPQVHYDYVGFPYWGQGTLVTVSSGGSEGKSSGSGSESKSTGGSEIVLTQSPATLSASPGERVTLSCSASSSVSYMNWYQQKPGQAPRRLIYDSSKLASGVPARFSGSGSGRDYTLTISSLEPEDFAVYYCQQWSRNPPTFGGGTKVEIK,–,–,–,15.2,54.9,1.4,0.7
CD3B2051 N106S (scFv) scFv: QVQLVQSGAEVKKPGSSVKVSCKASGYTFTRSTMHWVKQAPGQGLEWMGYINPSSAYTNYNQKFQGRVTLTADKSTSTAYMELSSLRSEDTAVYYCASPQVHYDYSGFPYWGQGTLVTVSSGGSEGKSSGSGSESKSTGGSEIVLTQSPATLSASPGERVTLSCSASSSVSYMNWYQQKPGQAPRRLIYDSSKLASGVPARFSGSGSGRDYTLTISSLEPEDFAVYYCQQWSRNPPTFGGGTKVEIK,–,–,–,11.1,101,70.9,1.5
CD3B2089 N106R (scFv) scFv: QVQLVQSGAEVKKPGSSVKVSCKASGYTFTRSTMHWVRQAPGQGLEWMGYINPSSAYTNYAQKFQGRVTLTADKSTSTAYMELSSLRSEDTAVYYCASPQVHYDYRGFPYWGQGTLVTVSSGGSEGKSSGSGSESKSTGGSEIVLTQSPATLSASPGERVTLSCSASSSVSYMNWYQQKPGQAPRRWIYDSSKLASGVPARFSGSGSGRDYTLTISSLEPEDFAVYYCQQWSRNPPTFGGGTKVEIK,–,–,–,11.2,102,103,60.4
CD3B2051 N106K (scFv) scFv: QVQLVQSGAEVKKPGSSVKVSCKASGYTFTRSTMHWVKQAPGQGLEWMGYINPSSAYTNYNQKFQGRVTLTADKSTSTAYMELSSLRSEDTAVYYCASPQVHYDYKGFPYWGQGTLVTVSSGGSEGKSSGSGSESKSTGGSEIVLTQSPATLSASPGERVTLSCSASSSVSYMNWYQQKPGQAPRRLIYDSSKLASGVPARFSGSGSGRDYTLTISSLEPEDFAVYYCQQWSRNPPTFGGGTKVEIK,–,–,–,11.4,116,91.3,4
CD3B2089 N106T (scFv) scFv: QVQLVQSGAEVKKPGSSVKVSCKASGYTFTRSTMHWVRQAPGQGLEWMGYINPSSAYTNYAQKFQGRVTLTADKSTSTAYMELSSLRSEDTAVYYCASPQVHYDYTGFPYWGQGTLVTVSSGGSEGKSSGSGSESKSTGGSEIVLTQSPATLSASPGERVTLSCSASSSVSYMNWYQQKPGQAPRRWIYDSSKLASGVPARFSGSGSGRDYTLTISSLEPEDFAVYYCQQWSRNPPTFGGGTKVEIK,–,–,–,11.1,108,76.7,1.4
CD3B2089 N106S (scFv) scFv: QVQLVQSGAEVKKPGSSVKVSCKASGYTFTRSTMHWVRQAPGQGLEWMGYINPSSAYTNYAQKFQGRVTLTADKSTSTAYMELSSLRSEDTAVYYCASPQVHYDYSGFPYWGQGTLVTVSSGGSEGKSSGSGSESKSTGGSEIVLTQSPATLSASPGERVTLSCSASSSVSYMNWYQQKPGQAPRRWIYDSSKLASGVPARFSGSGSGRDYTLTISSLEPEDFAVYYCQQWSRNPPTFGGGTKVEIK,–,–,–,10,102,90.2,5.4
CD3B2089 N106E (scFv) scFv: QVQLVQSGAEVKKPGSSVKVSCKASGYTFTRSTMHWVRQAPGQGLEWMGYINPSSAYTNYAQKFQGRVTLTADKSTSTAYMELSSLRSEDTAVYYCASPQVHYDYEGFPYWGQGTLVTVSSGGSEGKSSGSGSESKSTGGSEIVLTQSPATLSASPGERVTLSCSASSSVSYMNWYQQKPGQAPRRWIYDSSKLASGVPARFSGSGSGRDYTLTISSLEPEDFAVYYCQQWSRNPPTFGGGTKVEIK,–,–,–,10.3,113,108,33.2

# Source: patent US20250145711A1 (Janssen / Centocor, published 2025)
